The assay has as its target hEAAT3-X (Hg2+-crosslinked Cys-mini K269C/W441C hEAAT3g, human excitatory amino acid transporter 3) (human) (UniProt P43005). The experiment in a line: cryo-EM structure; hEAAT3-X at ~5 mg/mL in 20 mM HEPES-Tris pH 7.4, 200 mM NaCl, 0.01% GDN with 10 mM L-Asp, D-Asp, R-2HG or L-Cys; maps refined with C3 symmetry.

Consider one substance from paper PMC12036983.

For “hEAAT3-X (Hg2+-crosslinked Cys-mini K269C/W441C hEAAT3g, human excitatory amino acid transporter 3) (from UniProt P43005 1-524)”, the stoichiometry N (in general, the number of molecules, sites or subunits per partner or assembly) turned out to be 3.
